Like-named read-outs stand apart in the source and are kept apart here.
Columns and labels:
[1] = molecular target: T1, human CD47 on Jurkat cells (human, UniProt Q08722 19-323); test: MSD on Jurkat cells; blocks SIRP alpha-Fc binding
T1 construct: Endogenous CD47 of the cell lines; also called CD47-expressing Jurkat cells; CD47 on HL60 cells
Text: The ECL signal was plotted as a function of antibody concentrations, and EC₅₀ values were obtained from fitting the dose-response curves using non-linear regression model in GraphPad Prism.

[2] = molecular target: T2, Cyno CD47 ECD protein, His-tagged, monomer (cyno); test: ProteOn SPR; mAb captured, ECD monomer as analyte
T2 construct: extracellular domain; also called cynomolgus CD47
Experimental: (§1) Kinetic binding affinities to human CD47 and Cyno CD47 ECD proteins were determined by a Protein Interaction Array System (ProteOn). Briefly, mAbs were captured on the sensor chip via anti-IgG-Fc to reach surface density of 200-350 RU. […] The dissociation was monitored for 30 min. Data were fitted to 1:1 binding model.

[3] = molecular target: T3, recombinant human CD47 extracellular domain (ECD), His-tagged, monomer (human, UniProt Q08722 19-141); test: ProteOn SPR; mAb captured, ECD monomer as analyte
T3 construct: C-terminal 6xHis tag; monomeric fraction from Superdex 200; also called human CD47 ECD; CD47-ECD monomer
Experimental: as §1

[4] = molecular target: T4, recombinant human CD47 extracellular domain (ECD), His-tagged, dimer (human, UniProt Q08722 19-141); test: MSD; CD47-ECD dimer binding to captured SIRP alpha-Fc, mAb 10 µg/ml
T4 construct: Dimeric fraction of the same His-tagged ECD; also called His-tagged CD47-ECD dimer protein

[5] = molecular target: T2, Cyno CD47 ECD protein, His-tagged, …; test: ProteOn SPR; mAb captured, ECD monomer as analyte; remark: listed apart in the source
[6] = molecular target: T3, recombinant human CD47 extracellular …; test: ProteOn SPR; mAb captured, ECD monomer as analyte; remark: listed apart in the source
[7] = molecular target: T2, Cyno CD47 ECD protein, His-tagged, …; test: ProteOn SPR; cyno KD / human KD
Experimental: as §1

[8] = molecular target: T2, Cyno CD47 ECD protein, His-tagged, …; test: ProteOn SPR; cyno KD / human KD; remark: listed apart in the source
[9] = molecular target: T1, human CD47 on Jurkat cells; test: MSD on Jurkat cells; blocks SIRP alpha-Fc binding; remark: listed apart in the source
[10] = molecular target: T2, Cyno CD47 ECD protein, His-tagged, …; test: ProteOn SPR; cyno KD / human KD; remark: listed apart in the source
[11] = molecular target: T3, recombinant human CD47 extracellular …; test: ProteOn SPR
[12] = molecular target: T2, Cyno CD47 ECD protein, His-tagged, …; test: ProteOn SPR; mAb captured, ECD monomer as analyte; remark: listed apart in the source
[13] = molecular target: T3, recombinant human CD47 extracellular …; test: ProteOn SPR; mAb captured, ECD monomer as analyte; remark: listed apart in the source
[14] = molecular target: T3, recombinant human CD47 extracellular …; test: method not restated

Binder	EC50 [1] [µg/mL]	Kd [2] [nM]	Kd [3] [nM]	% SIRP alpha Inhibition [4] [%]	Kd [5] [nM]	Kd [6] [nM]	KD Ratio Cyno/Human [7]	KD Ratio Cyno/Human [8]	EC50 [9] [µg/mL]	KD Ratio Cyno/Human [10]	fold change of affinity against parent C47B116 [11] [fold]	Kd [12] [nM]	Kd [13] [nM]	Kd [14] [nM]
C47B91 (antibody, human IgG2, V domains shown, phage-derived; also called C47M91; parent C47B91) VH: EVQLVQSGAEVKKPGESLKISCKGSGYSFTSYWIGWVRQMPGKGLEWMGIIYPGDSDTRYSPSFQGQVTISADKSISTAYLQWSSLKASDTAMYYCARVGRFASHQLDYWGQGTLVTVSS VL: EIVLTQSPATLSLSPGERATLSCRASQSVNKALAWYQQKPGQAPRLLIYGASNRATGIPARFSGSGSGTDFTLTISSLEPEDFAVYYCQQGKGWPFTFGQGTKVEIK	0.06	24.5	15.6	82.6	17.8	5.95	1.6	3	–	–	–	–	–	–
C47B157 (human IgG2sigma) (antibody, V domains shown, HFA variant of C47B116; human IgG2sigma/kappa; also called IgG2 Fc-silent C47B157) VH: QVQLVQSGAEVKKPGASVKVSCKASGYTFTDYNMHWVRQAPGQGLEWMGDIYPYNGGTGYNQKFKGRVTMTRDTSTSTVYMELSSLRSEDTAVYYCARGGWHAMDSWGQGTLVTVSS VL: DIVMTQSPLSLPVTPGEPASISCRSRQSIVHTNRYTYLAWYLQKPGQSPQLLIYKVSNRFSGVPDRFSGSGSGTDFTLKISRVEAEDVGVYYCFQGSHVPYTFGGGTKLEIK	–	–	–	–	–	–	–	–	0.13	1.1	≤ 5	3.71	3.53	–
C47B116 (antibody, human IgG2, V domains shown, hybridoma-derived, chimeric human IgG2 Fc-silent/human kappa; also called parent hybridoma mAb C47B116) VH: EVQLQQSGPELVKPGASVKISCKASGYTFTDYNMHWVKQSHGKSLEWIGDIYPYNGGTGYNQKFKSKATLTVDNSSSTAYMELRSLTSEDSAVYYCARGGWHAMDSWGQGTSVTVSS VL: DVVMTQTPLSLPVSLGDQASISCRSRQSIVHTNRYTYLAWYLQKPGQSPKLLIYKVSNRFSGVPDRFSGSGSGTDFTLKISRVEAEDLGVYYCFQGSHVPYTFGGGTKLEIK	0.1	0.967	1.41	–	–	–	0.7	–	0.12	0.9	–	0.95	1.02	–
C47B161 (human IgG2sigma) (antibody, V domains shown, HFA variant of C47B116; human IgG2sigma/kappa; also called IgG2 Fc-silent C47B161) VH: QVQLVQSGAEVKKPGASVKVSCKASGYTFTDYNMHWVRQAPGQRLEWMGDIYPYNGGTGYNQKFKGRVTITRDTSASTAYMELSSLRSEDTAVYYCARGGWHAMDSWGQGTLVTVSS VL: DIVMTQSPLSLPVTPGEPASISCRSRQSIVHTNRYTYLAWYLQKPGQSPQLLIYKVSNRFSGVPDRFSGSGSGTDFTLKISRVEAEDVGVYYCFQGSHVPYTFGGGTKLEIK	–	–	–	–	–	–	–	–	0.06	1	≤ 5	2.96	2.87	–
C47B167 (antibody, V domains shown, isotype not restated) VH: EVQLVQSGAEVKKPGESLKISCKGSGYTFTSYWMQWVRQMPGKGLEWMGEINPSNGRTDYNEKFRGQVTISADKSISTAYLQWSSLKASDTAMYYCARQGGSGYGNSYGFFDVWGQGTTVTVSS VL: EIVLTQSPATLSLSPGERATLSCRASSSVSYMHWYQQKPGQAPRLLIYDTSRLASGIPARFSGSGSGTDFTLTISSLEPEDFAVYYCQQWRSNPYTFGGGTKVEIK	–	–	–	–	–	–	–	–	–	–	–	–	–	5.2
B6H12.2 (human IgG2sigma) (antibody, V domains shown, also called IgG2 Fc-silent B6H12.2; positive control anti-CD47 mAb) VH: EVKLVESGGDLVKPGGSLKLSCAASGFTFSGYGMSWVRQTPDKRLEWVATITSGGTYTYYPDSVKGRFTISRDNAKNTLYLQIDSLKSEDTAIYFCARSLAGNAMDYWGQGTSVTVSS VL: DIVMTQSPATLSVTPGDRVSLSCRASQTISDYLHWYQQKSHESPRLLIKFASQSISGIPSRFSGSGSGSDFTLSINSVEPEDVGVYYCQNGHGFPRTFGGGTKLEIK	0.21	0.572	0.539	–	–	–	1.1	–	–	–	–	–	–	–

From patent US20180250395A1 (Janssen / Centocor, published 2018)
